Reference: the supplement of paper PMC10126150
± gives the standard deviation of the averaged measurements.

System: ATP
Experiment: switch fluorescence ratio, 500 uM ATP over buffer (Cy3 cluster intensity, sum of 5 cycles each) (fold (ratio)); higher = stronger signal-on switching upon ATP binding; sequences stand for … in TCGTCGGCAGCGTCAGATGTGTATAAGAGACAGTTTTTTTTTTTTTTTTTTTTTTTTT…TC
Settings: aptamer strand: ATP DNA aptamer (quencher-CACCTGGGGGAGTATTGCGGAGGAAGG + anchor), 100 nM annealed; ATP concentration: 500 uM
In short: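 After annealing to 100 nM quencher-labelled ATP aptamer, Cy3-labelled switching-strand clusters on a modified Illumina MiSeq flow-cell were imaged in selection buffer. A second image followed after 15 min with 500 uM ATP at 22 °C, and five such buffer/ATP cycles were done, each separated by NaOH stripping and re-annealing. The fluorescence ratio, averaged per switch-domain sequence, is summed target-cycle over summed buffer-cycle Cy3 intensity per cluster, with clusters outside 100-1000 RFU excluded.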
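Further: ATP exposure 15 min at 22 °C before imaging.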

| Sequence | switch fluorescence ratio |
| --- | --- |
| TTGCAAGAGA | 1.022 ± 0.0082 |
| TGGGTTGGTA | 1.02 ± 0.02 |
| ATGTGGTTCC | 1.004 ± 0.0025 |
| AGAGAGGTCA | 0.997 ± 0.042 |
| CTATTTCGGG | 0.979 ± 0.052 |
| TGGGGAATAG | 1.04 ± 0.057 |
| TTTTTGCGTC | 1.03 ± 0.059 |
| TACACCTCTA | 1.07 ± 0.028 |
| TGCTTTTGAT | 1 ± 0.048 |
| TTCTTGCGCC | 1.076 ± 0.0073 |
| AGCTGTGACC | 1 ± 0.012 |
| CTAAAGTACT | 1.11 ± 0.041 |
| ATACACGTTA | 1.23 ± 0.013 |
| AATTGGAGGA | 0.996 ± 0.033 |
| CGTGCTGGTT | 1.01 ± 0.061 |
| CCGTTGATGT | 1.014 ± 0.002 |
| TAGCTAGCGT | 1.01 ± 0.019 |
| AGATTAGTAT | 1.02 ± 0.056 |
| GAGCTTGAGT | 0.984 ± 0.011 |
| TTGGTGTGGG | 0.986 ± 0.045 |
| AGACTCGCCC | 1.12 ± 0.059 |
| GATGGTGTGA | 0.978 ± 0.014 |
| GAGGAGGTAT | 0.973 ± 0.019 |
| ACTAGCTACT | 1.138 ± 0.0094 |
| TCGATTTGGC | 1 ± 0.045 |
| GAGGAATTGG | 0.979 ± 0.012 |

| Sequence | switch fluorescence ratio |
| --- | --- |
| ATGGGTCGGA | 1.01 ± 0.053 |
| ATTTTGGTAT | 1.01 ± 0.027 |
| TGTTTAACAT | 0.981 ± 0.035 |
| GGGGGGTTTA | 1.01 ± 0.029 |
| TTTTTGTGCT | 0.996 ± 0.032 |
| GGTGGGGTCG | 0.991 ± 0.046 |
| CTGTGTATGG | 0.989 ± 0.036 |
| TTTATTTTTC | 1.04 ± 0.046 |
| TGTGTCAGCT | 0.9981 ± 0.0041 |
| TTACGGGTAA | 0.99 ± 0.01 |
| GCACAAGATG | 1.0073 ± 0.00098 |
| TACCAACATC | 1.093 ± 0.0039 |
| TGGTTTGAGG | 0.989 ± 0.035 |
| TCCAGTGTCG | 1.01 ± 0.056 |
| GGGGTTTGTC | 0.95 ± 0.049 |
| AAAGGATATC | 1.036 ± 0.0028 |
| GAGCTTACTT | 1.104 ± 0.011 |
| TTACTTGCAT | 1.065 ± 0.0059 |
| AGAGAATGCG | 1.02 ± 0.049 |
| GTGTGGGAGC | 1 ± 0.06 |
| AGAGGCAGCT | 1.03 ± 0.046 |
| CAAGGATACA | 1 ± 0.034 |
| AGTGGTGAGG | 0.983 ± 0.016 |
| GAACATGGGC | 1.012 ± 0.0084 |
| CTGGGGTTCG | 1.0213 ± 0.00034 |
| TTTGTATGCA | 1.04 ± 0.057 |

| Sequence | switch fluorescence ratio |
| --- | --- |
| CGGGGGTGG | 1.02 ± 0.062 |
| ACTCGGGCAG | 0.9937 ± 0.002 |
| TTACGTTTTT | 0.999 ± 0.011 |
| TCCAGACTCT | 1.02 ± 0.011 |
| TGGAGAGTAG | 1.01 ± 0.032 |
| GTTGGGCCGT | 0.987 ± 0.038 |
| TTTGATTGTT | 0.97 ± 0.043 |
| TTAGGGCGGG | 1.04 ± 0.039 |
| AGCATATGAA | 1.02 ± 0.071 |
| TGAAATTTG | 1.01 ± 0.03 |
| TAGCCTTACG | 1.123 ± 0.0043 |
| AAAGCTATAT | 1.12 ± 0.011 |
| GGGCTCAGGC | 0.988 ± 0.0094 |
| GATTGGGTCC | 1 ± 0.02 |
| CTGGAAGCTA | 1.6 ± 0.1 |
| AGTAAGGCGC | 1.02 ± 0.045 |
| AGGCATCAAC | 1.02 ± 0.013 |
| AGGGATAAAT | 1.01 ± 0.055 |
| ATCGAGTGTG | 1.01 ± 0.027 |
| ACGGTTAGGG | 1.05 ± 0.043 |
| GTAAATTGTG | 1.01 ± 0.047 |
| GCCGTAGCTG | 1.02 ± 0.037 |
| GACTTGAGGT | 1.03 ± 0.025 |
| ACATATAGGG | 1.04 ± 0.021 |
